Among the data in the supplement of paper PMC9732359 are protein stability index values, retold here.

± gives the uncertainty stated by the source.

The data set in a line: protein stability index of a GFP-peptide fusion (yeast GPS) (PSI 1-4); higher = more stable; sorted into four equal gates, so the index is relative within each strain. The procedure, abridged:
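Plasmids in a pooled yeast library fused tiled 17-residue yeast protein peptides downstream of GFP and also expressed Cherry. Mid-log cultures grown without leucine were sorted into four equal gates by GFP/Cherry fluorescence ratio. Each gate's plasmids were PCR-amplified and Illumina-sequenced, and reads were matched to strains by barcodes. The protein stability index is derived by multiplying each gate's read frequency by its gate number and summing the results.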

For the sequence TDRESYPRLQDPSRELN [YCS4], the protein stability index by setting is: (doa10∆) 3.14 ± 0.05; (pdr5∆) 3.19 ± 0.043; (san1∆) 3.23 ± 0.034; (ubr1∆) 3.09 ± 0.052.

TDRITRLFIKPGQKMSL [BRN1]: the protein stability index (doa10∆) was determined as 3.22 ± 0.11, the protein stability index (pdr5∆) is 2.9 ± 0.11, the protein stability index (san1∆) came out at 2.97 ± 0.14 and the protein stability index (ubr1∆) was found to be 3.17 ± 0.1.

Consider TDVEKSDPAAKKTATEP [SRP21], for which the protein stability index by setting is: (doa10∆) 3.2 ± 0.11; (pdr5∆) 3.02 ± 0.085; (san1∆) 3.32 ± 0.046; (ubr1∆) 3.18 ± 0.096.

On to TEALLLEHDVEYRPFSK [DIS3], for which the protein stability index was 3.18 ± 0.095 (doa10∆), 3.08 ± 0.085 (pdr5∆), 3.17 ± 0.08 (san1∆) and 3.3 ± 0.082 (ubr1∆).

Consider TEDQKVTTNINWRSFNA [SRP68], for which the protein stability index is, setting by setting: (doa10∆) 3.13 ± 0.097; (pdr5∆) 3.16 ± 0.074; (san1∆) 3.1 ± 0.058; (ubr1∆) 3.21 ± 0.049.

Regarding TEFEFYLLEELESYLIV [SSN8], the protein stability index (doa10∆) is 2.63 ± 0.099, the protein stability index (pdr5∆) stood at 2.72 ± 0.087, the protein stability index (san1∆) stood at 3.21 ± 0.12 and the protein stability index (ubr1∆) was 2.72 ± 0.064.

With TEKEEAVAKAAEKKVVR [RPL17A], the protein stability index was found to be 3.44 ± 0.087 (doa10∆), 3.35 ± 0.082 (pdr5∆), 3.24 ± 0.053 (san1∆) and 3.24 ± 0.062 (ubr1∆).

In the case of TEKLSNGFSFTKFNHNK [YOR098C/NUP1], the protein stability index by setting is: (doa10∆) 3.02 ± 0.089; (pdr5∆) 3.14 ± 0.064; (san1∆) 3.02 ± 0.037; (ubr1∆) 2.94 ± 0.063.

Sequence TELLDYATKLSKFTKIP [MED4] displayed a protein stability index (pdr5∆) of 2.71 ± 0.23 and a protein stability index (san1∆) of 2.98 ± 0.16.

As to TELLNIYDSEDPQQVFD [RPN3], the protein stability index was 2.88 ± 0.1 (doa10∆), 3.13 ± 0.078 (pdr5∆), 3.15 ± 0.084 (san1∆) and 2.87 ± 0.058 (ubr1∆).

TEVERAKSLLKLQLGQL [COR1] had a protein stability index (doa10∆) of 1.42 ± 0.042, a protein stability index (pdr5∆) of 1.31 ± 0.048, a protein stability index (san1∆) of 1.36 ± 0.065 and a protein stability index (ubr1∆) of 1.37 ± 0.037.

Take TFANPNRTFTDPPFRIE [TAF14]: the protein stability index (doa10∆) was 2.35 ± 0.078, the protein stability index (pdr5∆) turned out to be 2.76 ± 0.075, the protein stability index (san1∆) is 2.7 ± 0.094 and the protein stability index (ubr1∆) was 2.27 ± 0.039.

TFDLTPEDAQLLLAANT [RPS0A]: the protein stability index by setting is: (doa10∆) 2.28 ± 0.054; (pdr5∆) 1.88 ± 0.049; (san1∆) 2.31 ± 0.088; (ubr1∆) 2.45 ± 0.053.

Turning to TFIDKERHQKQLNEKLV [YCS4], the protein stability index reads like this: (doa10∆) 2.62 ± 0.13; (pdr5∆) 2.6 ± 0.16; (san1∆) 2.81 ± 0.078; (ubr1∆) 2.65 ± 0.093.

TFLKYFGWLLSDNSVSV [IRR1]: the protein stability index (doa10∆) came to 2.67 ± 0.14, the protein stability index (pdr5∆) amounted to 2.4 ± 0.11, the protein stability index (san1∆) was determined as 2.24 ± 0.097 and the protein stability index (ubr1∆) was 2.66 ± 0.11.

As for TFRRRNPYNTRSNKIKV [RPL34A], the protein stability index was 1.43 ± 0.04 (doa10∆), 1.81 ± 0.045 (pdr5∆), 1.67 ± 0.066 (san1∆) and 1.9 ± 0.04 (ubr1∆).

As to TFTIKEFVSYYYAHSIP [SNU114], the protein stability index reads like this: (doa10∆) 1.88 ± 0.039; (pdr5∆) 1.77 ± 0.045; (san1∆) 2.25 ± 0.055; (ubr1∆) 1.88 ± 0.052.

On to TGAYIANRVTDKLTRVH [PRE3], for which the protein stability index (doa10∆) amounted to 1.57 ± 0.068, the protein stability index (pdr5∆) is 1.76 ± 0.059, the protein stability index (san1∆) was determined as 1.59 ± 0.083 and the protein stability index (ubr1∆) worked out at 1.54 ± 0.056.

As to TGISQKSMSILNSFVND [HTB1], the protein stability index amounted to 2.96 ± 0.06 (doa10∆), 2.94 ± 0.074 (pdr5∆), 2.6 ± 0.075 (san1∆) and 2.67 ± 0.087 (ubr1∆).

For TGSNDRCIGDSDNVSFE [YMR129W/POM152], the protein stability index (doa10∆) was found to be 3.19 ± 0.066, the protein stability index (pdr5∆) is 2.73 ± 0.068, the protein stability index (san1∆) stood at 2.5 ± 0.077 and the protein stability index (ubr1∆) is 3.09 ± 0.048.

For the setting “doa10∆”, THDGRTIRYPDPNIKVN [RPS4A] displayed a protein stability index of 1.52 ± 0.13.

As for THTEQNNPPKPQKPVPL [SNF2], the protein stability index worked out at 2.88 ± 0.08 (doa10∆), 3.34 ± 0.094 (pdr5∆), 3.12 ± 0.049 (san1∆) and 3.15 ± 0.057 (ubr1∆).

For the sequence THTNLERDEQKRAEKKA [SNF2], the protein stability index runs as follows: (doa10∆) 3.35 ± 0.099; (pdr5∆) 3.45 ± 0.11; (san1∆) 2.77 ± 0.12; (ubr1∆) 3.23 ± 0.059.

For TIANSIILHFANFGEIL [YMR153W/NUP53], the protein stability index was found to be 2.15 ± 0.055 (doa10∆), 2.38 ± 0.054 (pdr5∆), 2.23 ± 0.062 (san1∆) and 2.27 ± 0.062 (ubr1∆).

For TIDEQSQISPEKQTPNK [RPN1], the protein stability index was 3.24 ± 0.17 (doa10∆), 3.57 ± 0.15 (pdr5∆), 3.28 ± 0.12 (san1∆) and 3.22 ± 0.056 (ubr1∆).

On to TIEKDKMKIQETISKLN [SMC2], for which the protein stability index by setting is: (doa10∆) 1.71 ± 0.058; (pdr5∆) 1.69 ± 0.044; (san1∆) 1.94 ± 0.12; (ubr1∆) 1.53 ± 0.038.

As for TIEQSPRMIELMEFLCV [ECM29], the protein stability index (san1∆) amounted to 3.11 ± 0.14 and the protein stability index (ubr1∆) turned out to be 3.25 ± 0.13.
